In patent US12723105 (BEIJING STARMAB BIOMED TECHNOLOGY, dated 2026) one finds EC50 and Kd data, which are given here for three molecules.

A word on the EC50: it is the concentration needed to bring the measured effect to its halfway point. The term Kd denotes the equilibrium constant for the complex coming apart.

For test [1], the target named is T1, CD47 natively expressed on tumor cell surface (Jurkat, HL60 cells) (human, UniProt Q08722 19-323).
T1 construct: whole, on cells; also called CD47 on the HL60 cell surface; CD47 on the Jurkat cell surface
Nature of the test: flow cytometry on HL60 cells (express CD47 but not PD-L1).

Test [2] has as its target mouse serum albumin (mouse, UniProt P07724 25-608). Nature of the test: BLI (Octet), cross-species albumin binding.
Test [3] addresses Monkey serum albumin (Monkey). Nature of the test: BLI (Octet), cross-species albumin binding. (In BLI a coated tip is dipped into the sample, and binding shifts an interference pattern.)
Test [4] addresses T2, Human serum albumin (human, UniProt P02768 25-609).
T2 construct: also called HSA
Kind of test: BLI (Octet), cross-species albumin binding.

B1: 1518-HS5 (CD16F1-L1-hHS5-L1-hA09-10-3-L3-hA09-10-4-L1-hPL16-L3-hPL16) (bispecific antibody)
chain: EVQLVESGGGLVQPGGSLRLSCAVSGSLFSARVMGWYRQAPGKQRELVAAITSGVRTDYADSVKGRFTISRDNAKRAVYLQMNSLKPEDTAVYYCNVNLYNTGNYWGQGTQVTVSSGGGGSGGGSEVQLLESGGGLVQPGGSLRLSCAASGRTFTTHAMGWFRQAPGKEREFVSAINWGGRTTYYADSVKGRFIISRDTGANTLYLQMNSLRAEDTAVYYCASNLDTYNVRAGTTNSWGQGTQVTVSSGGGGSGGGSEVQLVESGGGLVQPGGSLRLSCAASGGGRTFSNYALGWFRQAPGKEREFVAAISRSGGNINYADSVKGRFTISRDNFKNTVYLQMSSLRAEDTAVYYCAAHYLLLPSYISTSTNMYNYWGQGTQVTVSSAAAQVQLVESGGGLVQPGGSLRLSCAASGGGRTFSNYALGWFRQAPGKEREFVAAISRSGGNINYADSVKGRFTISRDNAKNTVYLQMSSLRAEDTAVYYCAAHYLLLPSYISTSTNMYNYWGQGTQVTVSSGGGGSGGGSEVQLVESGGGLVQPGGSLRLSCAASGGTFLTYSMSWVRQAPGKEREFVSSINWSGYMTYYADSVKGRFTISRDNSKNTLYLQMNSLRAEDTAVYYCAAARTAIAAKRSSEFDYWGQGTQVTVSSAAAEVQLVESGGGLVQPGGSLRLSCAASGGTFLTYSMSWVRQAPGKEREFVSSINWSGYMTYYADSVKGRFTISRDNSKNTLYLQMNSLRAEDTAVYYCAAARTAIAAKRSSEFDYWGQGTQVTVSS
notes: Multi-specific single chain antibody with the 9-residue linker G4SG3S between the anti-HSA and anti-CD47 domains
Regarding B1, in test [1], the EC50 was determined as 26 nM.

B2: hHS10 (VHH)
VHH: EVQLVESGGGLVQPGGSLRLSCAASGSTDSAYRMGWFRQAPGKEREFVSAINWSDGRTYYADSVKGRFTISRDNSKNTLYLQMNSLRAEDTAVYYCAADPDSRLYYTVPQNYDYWGQGTLVTVSS
notes: also called humanized HS10; not shown: C-terminal His-tag
As to B2, the Kd in test [2] was 4.57 nM; in test [3], 8.08 nM; in test [4], 3.18 nM.

B3: hHS5 (VHH)
VHH: EVQLLESGGGLVQPGGSLRLSCAASGRTFTTHAMGWFRQAPGKEREFVSAINWGGRTTYYADSVKGRFIISRDTGANTLYLQMNSLRAEDTAVYYCASNLDTYNVRAGTTNSWGQGTQVTVSS
notes: also called humanized HS5; not shown: C-terminal His-tag
Turning to B3, the Kd came out at 11.6 nM in test [3] and 0.817 nM in test [4].
